Measurements published in US20090291081A1 (AbbVie / Abbott, published 2009).
Where “and” joins values, the source holds several entries; their conditions need not be identical. Identical values can stand only once.

B1: ABT2-46 (other)
VL: DIQMTQSPSSLSASVGDRVTITCRASQSIIEWLSWYQQKPGKAPKLLIYRTSVLQSGVPSRFSGSGSGTDFTLTISSLQPEDFATYYCQQNEFWPFTFGQGTKVEIKR
notes: VK dAb
B2: ABT2-42 (other)
VL: DIQMTQSPSSLSASVGDRVTITCRASQYIEKWLTWYQQKPGKAPTLLIYRGSLLQSGVPSRFSGSGSGTDFTLTISSLQPEDFATYYCQQTEYWPFTFGQGTKVEIKR
notes: VK dAb
B3: ABT2-76 (other)
VL: DIQMTQSPSSLSASVGDRVTITCRASQSIDRWLAWYQQKPGKAPKLLIYRGSILQSGVPSRFSGSGSGTDFTLTISSLQPEDFATYYCQQVAFWPPTFGQGTKVEIKR
notes: VK dAb
B4: ABT2-108/ABT1-122 hu IgG1/K wt (bispecific antibody, V domains shown)
VH: EVQLLESGGGLVQPGGSLRLSCAASGFTFAEYTMMWVRQAPGKGLEWVSRIGQDGKNTYYADSVKGRFTISRDNSKNTLYLQMNSLRAEDTAVYYCAKYTGRVGVHHLFDYWGQGTLVTSS
VL: DIQMTQSPSSLSASVGDRVTITCRASQPIWTELNWYQQKPGKAPKLLIYGSSSLQSGVPRFSGSGSGTDFTLTISSLQPEDFATYYCQQFAYFPATFGQGTKVEIKR
B5: ABT2-108 (other)
VH: EVQLLESGGGLVQPGGSLRLSCAASGFTFAEYTMMWVRQAPGKGLEWVSRIGQDGKNTYYADSVKGRFTISRDNSKNTLYLQMNSLRAEDTAVYYCAKYTGRVGVHHLFDYWGQGTLVTSS
notes: VH dAb
B6: ABT2-13 (other)
VH: EVQLLESGGGLVQPGGSLRLSCAASGFTFRDYVMYWARQAPGKGLEWVSRIDPMGSSTYYADSVKGRFTISRDNSKNTLYLQMNSLRAEDTAVYYCAKPEGNFDYWGQGTLVTVSS
notes: VH dAb
B7: ABT2-108-620x/ABT1-122-511 huIgG1/K wt (bispecific antibody, V domains shown)
VH: EVQLLESGGGLVQPGGSLRLSCAASGFTFAEESWMWVRQAPGKGLEWVSRIGQDGKNTYYREDVKGRFTISRDNSKNTLYLQMNSLRAEDTAVYYCAKYTGRIMGHHLFDYWGQGTLVTVSS
VL: DIQMTQSPSSLSASVGDRVTITCRASQPIWTELNWYQQKPGKAPKLLIYGSSSLQRGVPSRFSGSGSGTDFTLTISSLQPEDFATYYCKQFAYFPATFGQGTKVEIKR
B8: ABT2-108-605/ABT1-122 hu IgG1/K wt (bispecific antibody, V domains shown)
VH: EVQLLESGGGLVQPGGSLRLSCAASGFTFAEYTMMWVRQAPGKGLEWVSRIGQDGKNTYYREDVKGRFTISRDNSKNTLYLQMNSLRAEDTAVYYCAKYTGRVGVHHLFDYWGQGTLVTVSS
VL: DIQMTQSPSSLSASVGDRVTITCRASQPIWTELNWYQQKPGKAPKLLIYGSSSLQSGVPRFSGSGSGTDFTLTISSLQPEDFATYYCQQFAYFPATFGQGTKVEIKR
B9: ABT1-95-4 (other)
VL: DIQMTQSPSSLSASVGDRVTITCRASQPIVRNLRWYQQKPGKAPKLLIYSSSYLQSGVPSRFSGSGSGTDFTLTISSLQPEDFATYHCQQGYRWPVTFGQGTKVEIKR
notes: dAb, Vκ, to IL-1α
B10: ABT2-65 (other)
VH: EVQLLESGGGLVQPGGSLRLSCAASGFTFEDYQMGWVRQAPGKGLEWVSSISAMGNRTYYADSVKGRFTISRDDSKNTLYLQMNSLRAEDTAVYYCAKNLVRTQSKMWMFDYWGQGTLVTVSS
notes: VH dAb

Columns and labels:
human IL-1β [1] = target: T1, human IL-1β (human, UniProt P01584 117-269); assay: cell-based or functional assay
human IL-1β [2] = target: T1, human IL-1β; assay: BIAcore (SPR)
human IL-1β [3] = target: T2, human IL-1β (human, UniProt P01584 117-269); assay: cell-based or functional assay; remark: listed apart in the source
human IL-1β [4] = target: T2, human IL-1β; assay: cell-based or functional assay; remark: listed apart in the source
human IL-1α [5] = target: T3, human IL-1α (human, UniProt P01583 113-271); assay: cell-based or functional assay
T3 sequence (looked up): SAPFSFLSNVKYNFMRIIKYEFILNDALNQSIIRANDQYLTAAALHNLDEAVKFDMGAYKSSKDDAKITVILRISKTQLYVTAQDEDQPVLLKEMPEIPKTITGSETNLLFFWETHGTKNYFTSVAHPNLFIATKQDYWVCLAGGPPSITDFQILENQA

human IL-1α [6] = target: T3, human IL-1α; assay: method not given

Binder | MRC5 ND50 (human IL-1β [1]) [nM] | Kd (human IL-1β [2]) [nM] | MRC-5 IL-1β neutralization potency (human IL-1β [4]) [nM] | further results
B1 | 386 | 2800 |  | 
B2 | 770 | 54000 |  | 
B3 | 456 | 1300 |  | 
B4 |  |  | ~15 | IL-1β IC50 (human IL-1β [3]): 15 nM and 20 nM and 40 nM
B5 | 200 | 110 |  | 
B6 | ~1000 | 930 |  | 
B7 |  |  | ~0.03 | IL-1β IC50 (human IL-1β [3]): 0.01 nM and 0.02 nM and 0.03 nM
B8 |  |  | ~0.35 | 
B9 |  |  |  | MRC5 ND50 (human IL-1α [5]): 0.9 nM; Kd (human IL-1α [6]): 0.9 nM
B10 | 266 | 28 |  | 
